From the nanobody polyreactivity screen of Harvey et al. (2022) come the findings set out here.

The nature of this data set: yeast display, Sf9 membrane polyspecificity reagent, FACS + sequencing; frameworks hold sequencing errors. The essentials:
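Polyreactivity labels are assigned by the sorting gate from which each nanobody was recovered. The gates were low and high (top ~1%), set on anti-HA fluorescence for expression and streptavidin fluorescence for reagent binding. Before sorting, galactose-induced (36–48 hours) yeast display cells were stained for 1 hour at 4 °C with 10% biotinylated, detergent-solubilized Sf9 membrane reagent.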
Consider “QVQLVESGGGLVQAGGSLRLSCAASGRIFSDNAMGWYREAPGKERELVAAITWSSGSTYADSVKGRFTISRDNAKNTVYLQMNSLKPEDTAVYYCNVSPGYEPLDHELDYWGQGTQVTVSS”, for which the “polyreactivity (PSR sort gate)” value is “low polyreactivity”.

Turning to “QVQLVESGGGLVQAGGSLRLSCAASGRIFSDNAMGWYRQAPGKERELVAAITDRGGSTYYADSVKGRFTISRDNAQNTVYLQMNSLKPEDTAVYYCAARNTPAQLDYWGQGTQVTVSS”, the “polyreactivity (PSR sort gate)” value is given as “low polyreactivity”.

On to “QVQLVESGGGLVQAGGSLRLSCAASGRIFSFNAMGWYRQAPGKERELVAGITYGGNTYYADSVKGRFTISRDNAKNTVYLQMNSLKPEDPAVYYCAAVRGGRHDYWGQGTQVTVSS”, for which the “polyreactivity (PSR sort gate)” value is “low polyreactivity”. “QVQLVESGGGLVQAGGSLRLSCAASGRIFSFNTMGWYRQAPGKEREFVATIRYSGGSTYADSVKGRFTISRDNAKNTVYLQMNSLKPEDTAVYYCAAAWWSYKFNRDFDYWGQGTQVTVSS”: the “polyreactivity (PSR sort gate)” value is given as “low polyreactivity”.

With “QVQLVESGGGLVQAGGSLRLSCAASGRIFSGNAMGWYRQAPRKERELVAAISRGGSTDYADSVKGRFTISRDNAKNTVYLQMNSLKPEDTAVYYCSARVNGKRRRYDYWGQGTQVTVSS”, the “polyreactivity (PSR sort gate)” value was “high polyreactivity”.

“QVQLVESGGGLVQAGGSLRLSCAASGRIFSINALGWYRQAPGKEREFVATISDRGSTTSYADSVKGRFTISRDNAKNTVYLQMNSLKPEDTAVYYCAARSYYRYDYWGQGTQVTVSS”: the “polyreactivity (PSR sort gate)” value is “high polyreactivity”. Under “QVQLVESGGGLVQAGGSLRLSCAASGRIFSIYAMGWYRQAPGKERDMVAASSFRGTSTYADSVKGRFTISRDNAKNTVYLQMNWLKPEDTAVYYCAVTGFDVLWPSLGGELDYWGQGTQVTVSS” stands “low polyreactivity”. Regarding “QVQLVESGGGLVQAGGSLRLSCAASGRIFSIYAMGWYRQAPGKERELVAAISKRGGSTSYADSVKGRFTISRDNAKNTVYLQMNSLKPEDTAVYYCNARGWIPARGWDDYYWGQGTQVTVSS”, the “polyreactivity (PSR sort gate)” value is “high polyreactivity”. Under “QVQLVESGGGLVQAGGSLRLSCAASGRIFSKYAMGLYRQAPEKERELVAAISGTGGSTYYADSVKGRFTISRDNSKNTVYLHMNSLKTEDTAVYYCAAEWYGRMYYWGQGTQVTVSS” stands “high polyreactivity”; under “QVQLVESGGGLVQAGGSLRLSCAASGRIFSLNAMGWYRQAPGKERELVAAISKRGGSTYYADSVKGRFTISRDNAKNTVYLQMNSLKPEDTAVYYCNKLGSLSGRYDYWGQGTQVTVSS”, “high polyreactivity”.

For the sequence “QVQLVESGGGLVQAGGSLRLSCAASGRIFSLYAMGWYRQAPGKEREFVAAISKSSGGTYYADSVKGRFTISRDNAKNTVYLQMNSLKPKDTAVYYCNARFVIGWVRKLDYWGQGTQVTVSS”, the “polyreactivity (PSR sort gate)” value is on record as “high polyreactivity”. On to “QVQLVESGGGLVQAGGSLRLSCAASGRIFSLYAMGWYRQAPGKERELVAAISKRGGSTYYADSVKGRFTISRDNAKNTVYLQMNSLKPEDTAVYYCATQLPFRKPWHDYWGQGTQVTVSS”, for which the “polyreactivity (PSR sort gate)” value is given as “high polyreactivity”. Turning to “QVQLVESGGGLVQAGGSLRLSCAASGRIFSLYAMGWYRQAPGKERELVAAISSSGGRTYYADSVKGRFTISRDNAKNTVYLQMNSLKPEDTAVYYCADLVFSWWTFEYWGQGTQVTVSS”, the “polyreactivity (PSR sort gate)” value is “high polyreactivity”.

In the case of “QVQLVESGGGLVQAGGSLRLSCAASGRIFSNNAMGWYRQAPGKERELVAAISSSGSTYYADSVKGRFTISRDNAKNTVYLQMNSLKPEDTAVYYCAVVYGYPYLRGYVYGFNYWGQGTQVTVSS”, the “polyreactivity (PSR sort gate)” value is “low polyreactivity”. “QVQLVESGGGLVQAGGSLRLSCAASGRIFSNNVMGWYIQAPGKERELVATISTDGRTNYADSVKGRFTISRDNAQNTVYLQMNSLKPEDTAVYFCAATGVTILLSSKSDYWGQGTQVTVSS”: the “polyreactivity (PSR sort gate)” value is given as “low polyreactivity”.

For the sequence “QVQLVESGGGLVQAGGSLRLSCAASGRIFSPYAMGWYRQAPGKERELVAAITRNGGRTYYADSVKGRFTISRDNAKNTVYLQMNSLKPEDTAVYYCAAAKQSGNDYWGQGTQVTVSS”, the “polyreactivity (PSR sort gate)” value is on record as “low polyreactivity”.

As for “QVQLVESGGGLVQAGGSLRLSCAASGRIFSRNAMGWYRQAPGKERELVAAITYSGGSTYYADSVKGRFTISRDNAKNTVYLQMNSLKPEDTAVYYCNADLYLQLPESYEYDYWGQGTQVTVSS”, the “polyreactivity (PSR sort gate)” value was “high polyreactivity”. As for “QVQLVESGGGLVQAGGSLRLSCAASGRIFSRNAMGWYRQAPGKERELVAGISARGGRTYYADSVKGRFTISRDNAKNTVYLQMNSLKPEDTAVYYCNARTGYQDGTYGNDYWGQGTQVTVSS”, the “polyreactivity (PSR sort gate)” value is on record as “high polyreactivity”.

On to “QVQLVESGGGLVQAGGSLRLSCAASGRIFSRNTMGWYRQAPGKEREFVAAISQSGGRTYYADSVKGRFTISRDNAKNTVYLQMNSLKPEDTAVYYCAAPSQSRGYYYWGQGTQVTVSS”, for which the “polyreactivity (PSR sort gate)” value was “high polyreactivity”. As to “QVQLVESGGGLVQAGGSLRLSCAASGRIFSRYAMGWYRQAHGKERELVAAISWSGGSTYYADSVKGRFTISRDNAKNTVYLQMNSLKPEDTAVYYCAARRSYSYGSWGQGTQVTVSS”, the “polyreactivity (PSR sort gate)” value is “high polyreactivity”. On to “QVQLVESGGGLVQAGGSLRLSCAASGRIFSRYAMGWYRQAPGKERELVAAINKSGGSTYYADSVKGRFTISRDNAKNTVYLQMNSLKPEDTAVYYCNAVYYWYKGDYWGQGSQVTVSS”, for which the “polyreactivity (PSR sort gate)” value is “high polyreactivity”. Under “QVQLVESGGGLVQAGGSLRLSCAASGRIFSRYAMGWYRQAPGKERELVAAISRNGGSTYYADSVKGRFTISRDNAKNTVYLQMNSLKPEDTAVYYCNARGNQAVNGYEYWGQGTQVTVSS” stands “high polyreactivity”; under “QVQLVESGGGLVQAGGSLRLSCAASGRIFSRYAMGWYRQAPGKERELVAAISWSGGSTYYADSVKGRFTISRDKAKNTVYLQMNSLKPEDTAVYYCAAKRQYTEYNYWGQGTQVTVSS”, “high polyreactivity”; under “QVQLVESGGGLVQAGGSLRLSCAASGRIFSRYAMGWYRQAPGKERELVAIISSGDSTNYADSVKGRFTISRDNAKNTVYLQMNSLKPEDTAVYYCAAANWGTPPYDDWGQGTQVTVSS”, “low polyreactivity”. On to “QVQLVESGGGLVQAGGSLRLSCAASGRIFSSNVMGWYRQAPGKERELVAAITVTGGSTYYAYSVKGRFTISRDNAKYTVYLLMNSLNPEDTAVYFCAARVKGRFPYDYWGQGSQVTVSS”, for which the “polyreactivity (PSR sort gate)” value is reported as “low polyreactivity”.

On to “QVQLVESGGGLVQAGGSLRLSCAASGRIFSSYAMGWYRQAPGKEREFVASITWRGGSTYYADSVKGRFTISRDNAKNTVYLQMNSLKPEDTAVYYCAADFYWKTYGYRTHEYDYWGQGTQVTVSS”, for which the “polyreactivity (PSR sort gate)” value is recorded as “high polyreactivity”. With “QVQLVESGGGLVQAGGSLRLSCAASGRIFSSYAMGWYRQAPGKERELVADITGRYGSTYYADSVKGRFTISRDNAKNTVYLQMNSLKPEDTAVYYCAASRFYFPRTFGGYPKLASYAYWGQVTQVTVSS”, the “polyreactivity (PSR sort gate)” value is “low polyreactivity”. In the case of “QVQLVESGGGLVQAGGSLRLSCAASGRIFSSYAMGWYRQEPGKERELVAAISRSGARTYYADSVKGRFTISRDNAKNTVYLQMNSLKPEDTAVYYCAAVTVAGYDYWGQGTQVTVSS”, the “polyreactivity (PSR sort gate)” value was “high polyreactivity”. Consider “QVQLVESGGGLVQAGGSLRLSCAASGRIFSTYALGWYRQAPGKERELVAAISYSGASTYYADSVKGRFTISRDNAKNTVYLQIKSMKPEDTAVYYCAKATYPHEYDYWGQGTQVTVSS”, for which the “polyreactivity (PSR sort gate)” value is listed as “low polyreactivity”.

Take “QVQLVESGGGLVQAGGSLRLSCAASGRIFSTYAMGWYRQAPGKERELVAAISWRGGNTYYADSVKGRFTISRDNAKNTVYLQMNSLKPEDTAVFYCAAASFAYPYRNSALDYWGQGTQVTVSS”: the “polyreactivity (PSR sort gate)” value is recorded as “high polyreactivity”. Regarding “QVQLVESGGGLVQAGGSLRLSCAASGRIFSTYAMGWYRQAPGKERELVAAISYSGTTTYYADSVKGRFTISRDNAKNTVYLQMNSLKPEDTAVYYCAAYRYSTWSYGRDYYWGQGTQVTVSS”, the “polyreactivity (PSR sort gate)” value was “high polyreactivity”. For “QVQLVESGGGLVQAGGSLRLSCAASGRIFSTYTMGWYRQAPGKERELVASISWSGVRTRYADSVKGRFTISRDNAQNTVYLQMNSLKPEDTAVYYCAAVVPYYYRSPSNHMGYWGQGTQVTVSS”, the “polyreactivity (PSR sort gate)” value is reported as “high polyreactivity”. Next, “QVQLVESGGGLVQAGGSLRLSCAASGRIFSTYVMGWYRQAPGKERELVAAIRNRGGSTYYADSVKGRFTISRDNAKNTVYLQMNSLKPEDTAVYYCAAEYSYRYRVSMDYWGQGTQVTVSS”: “high polyreactivity”; “QVQLVESGGGLVQAGGSLRLSCAASGRIFSVNAMGWYRQAPGKERELVASISWSGGSTYYADSVKGRFTISRDNAKNTVYLQMNSLKPEDTAVYYCNARIESYWLDFDYWGQGTQVTVSS”: “low polyreactivity”; “QVQLVESGGGLVQAGGSLRLSCAASGRIFSVNAMVWYRPAPGKERELVAAITGSGTITYYADSVKGRFTISRDNAKNTVYLQMSSLKPEDTAVYYCAARPVLRYYAGYYYWGQGTQVTVSS”: “high polyreactivity”. “QVQLVESGGGLVQAGGSLRLSCAASGRIFSVYTMGWYRQAPGKEREFVASITGSAGSTYYADSVKGRFTISRDNAKNTVYLQMNSLKPEDTAVYYCAKRITAWYTYYGYWGQGTQVTVSS”: the “polyreactivity (PSR sort gate)” value is “low polyreactivity”.

In the case of “QVQLVESGGGLVQAGGSLRLSCAASGRIFSVYTMGWYRQAPGKERELVATISSGGRTNYADSVKGRFTISRDNAKNTVYLQMNSLKPEDTAVYYCAAVPYGFVGYDDYWGQGTQVTVSS”, the “polyreactivity (PSR sort gate)” value is given as “low polyreactivity”. “QVQLVESGGGLVQAGGSLRLSCAASGRIFSVYTMRWYRQAPGKERELVATISSGGRTNYADSVKGRFTISRDNAKNTVYLQMNSLKPEDTAVYYCAADWVYPPGLKDSVHFGEYDYWGQGTQVTVSS”: the “polyreactivity (PSR sort gate)” value was “low polyreactivity”. Under “QVQLVESGGGLVQAGGSLRLSCAASGRIFSWNAMGWYRQAPGKERELVAAITIGGGTYYADSVKGRFTISRDNAKNTVYLQMNSLKPEDTAVYYCNAYRRKLWYPTGMYWGQGTQVTVSS” stands “high polyreactivity”.

Consider “QVQLVESGGGLVQAGGSLRLSCAASGRIFSWNAMGWYRQAPGKERELVARITWNGGRTYYADSVKGRFTISRDNAKNTVYLQMNSLKPEDTAVYYCNAERFDLTYNYWGQGTQVTVSS”, for which the “polyreactivity (PSR sort gate)” value was “high polyreactivity”.

Regarding “QVQLVESGGGLVQAGGSLRLSCAASGRIFSWNTMGWYRQAPGKERELVAAITQSGSTYYADSVKGRFTISRDNAKNTVYLQMNSLKPEDTAVYYCAAVVGRRLYPRYDYWGQGTQVTVSS”, the “polyreactivity (PSR sort gate)” value was “high polyreactivity”.
